# In patent publication US20080153161A1, “Genetically Encoded Photosensitizers and Methods for Using Same” (priority 2005, published 2008):
# “Also recorded” adds a separate entry of the source. Where a SMILES comes first, the peptide text is derived from it. The star is where a group is joined. Cbz = O=C(OCc1ccccc1)*; CH2F = FC*
# B1: anm2CP: wild type Anthomedusae chromoprotein (SEQ ID NOs: 9 and 10) (protein)
# chain: MEGGPALFQSDMTFKIFIDGVVNDQKFTIIADGSSKFPHGDFNVHAVCETGKLPMSWKPICHLIQYGEPFFAKYPNGISHFAQECFPEGLTIDRTVRFENDGTMTSHHTYELDGTCVISRITVNCDGFQPDGPIMKDQLVDILPTETHMFPHGSNAVRQLCYIGFTTADGGLMMSHFDSKLTFNGSRAIKIPGPHFVTVIIKQMKDTSDKRDHVCQREVTYAHSVPRITSAI
# modifications: hydromedusa 2 from sub-order Anthomedusae
# B2: S3-2 (protein)
# chain: EGGPALFQSDMTFKIFIDGVVNGQKFTIVADGSSKFPHGDFNVHAVCETGKLPMSWKPICHLIQYGEPFFARYPNGISHFAQECFPEGLSIDRTVRFENDGTMTSHHTYELDGTCVVSRITVNCDGFQPDGPIMRDQLVDILPNETHMFPHGPNAVRQLAFIGFTTADGGLMMSHFDSKMTFNGSRAIKIPGPHFVTTITKQMKDTSDKRDHVCQREVTYAHSVPRITSAI
# modifications: amino acid sequence for the red fluorescent protein S3-2
# B3: KillerRed: red fluorescent protein (SEQ ID NO: 4), developed from chromoprotein anm2CP by random mutagenesis; genetically encoded photosensitizer (protein)
# chain: EGGPALFQSDMTFKIFIDGEVNGQKFTIVADGSSKFPHGDFNVHAVCETGKLPMSWKPICHLIQYGEPFFARYPNGISHFAQECFPEGLSIDRTVRFENDGTMTSHHTYELDDTCVVSRITVNCDGFQPDGPIMRDQLVDILPNETHMFPHGPDAVRQLAFIGFTTADGGLMMGHFDSKMTFNGSRAIEIPGPHFVTIITKQMRDTSDKRDHVCQREVAYAHSVPRITSAIGSDED
# modifications: amino acid sequence for the red fluorescent protein JR18IC+
# notes: genetically encoded photosensitizer
# Legend:
# B16 melanoma cells [1] = assay: Phototoxicity of TMRM compared with mitochondrial KillerRed in B16 melanoma cells; format: cell-based; conditions: 100 nM, 3.3 W/cm2 green light
# Procedure: The phototoxicity of mitochondrial KillerRed was compared with the phototoxicity of tetramethylrhodamine (TMRM)—a red fluorescent dye capable of producing ROS which accumulates in mitochondria of living cells. B16 melanoma cells were preincubated with 100 nM TMRM for 20 min at 37° C. and irradiated by 3.3 W/cm2 green light (40× objective, 535-575 nm) for time periods of 10 sec, 1 min, 5 min, and longer. […] Irradiation for 1 min led to cell death within 30-40 min. The effect was similar to that obtained by 15-min irradiation of the KillerRed-expressing cells under the same conditions.
# B16 melanoma cells [2] = assay: Light-induced killing of B16 melanoma cells expressing mitochondrially targeted KillerRed; format: cell-based; conditions: pre-incubated with 10 μM inhibitor, 1.5 hour post illumination
# Excerpt: Mitochondrial localization of a photosensitizer is known to be effective in photodynamic therapy, leading preferentially to apoptotic cell death. To provide for a more pronounced phototoxic effect, KillerRed was targeted to mitochondria by cloning it in frame with a double N-terminal mitochondrial localization signal and the resulting construct was transiently transfected into B16 melanoma cells. Exposure of mitochondrially targeted KillerRed expressing B16 melanoma cells to green light for 15 minutes using lower irradiation intensity (40× objective, 535-575 nm excitation filter, 3.3 W/cm2) led to nearly 100% cell death within 45 min after irradiation (FIG. 8B). If pre-incubated with 10 μM pancaspase inhibitor zVAD-fmk, the cells survived identical irradiation and preserved their native shape within 1.5 hour post illumination. This indicates the apoptotic way of the mitochondrially targeted KillerRed-mediated cell death.
# beta-gal [3] = assay: Inhibitory analysis with specific ROS quenchers in the in vitro beta-gal CALI system; format: biochemical, E. coli; conditions: superoxide dismutase 500 u/ml with catalase 500 u/ml; mannitol 67 mM; sodium azide 20 mM
# Procedure: White and hatched columns show β-gal activity for the intact and irradiated samples, respectively.
# The mechanism of the KillerRed-mediated effect was tested using inhibitory analysis. A specific ROS quenchers were added to the in vitro beta-gal CALI system described above (FIG. 6).
# [4] = tested on: E. coli (XL1-Blue strain); assay: Screening of fluorescent and chromo-proteins for phototoxic effect in E. coli (CFU after white light); format: cell-based; conditions: for phototoxic effect: E. coli expressing the protein, white light 1 hour, CFU irradiated vs non-irradiated
# Excerpt: Looking for a GFP-like protein, which could be used as an efficient photosensitizer, we screened different proteins for a phototoxic effect in E. coli including: • (1) Anemonia majano fluorescent protein AmCyan (also noted to as FP486, GenBank ID AF168421; Clontech); • (2) Zoanthus sp. fluorescent protein ZsGreen FP506 (also noted to as FP506, GenBank ID AF168422; Clontech); • (3) red fluorescent protein DsRed2 (Clontech); • (4) Anemonia sulcata GFP-like chromoprotein asulCP FP595 (also noted to as FP595, GenBank ID AF246709); • (5) asulCPW94F protein, a mutant of chromoprotein FP595 comprising W94F amino acid substitution; • (6) commercially available red fluorescent protein AsRed2 (Clontech); • (7) Dendronephthya sp. green fluorescent protein dendGFP (GenBank ID AF420591); • (8) Goniopora tenuidens GFP-like chromoprotein, gtenCP (GenBank ID AF383156); • (9) aceGFP (GenBank ID AY233272); • (10) circularly permutated aceGFP (GenBank ID AY233272) variant, cpT1 having nucleotide and amino acid sequences shown in SEQ ID NOS: 5, 6.; • (11) monomeric mutant of dendGFP protein, dendQ4mono, having nucleotide and amino acid sequences shown in SEQ ID NOS: 7, 8.; • (12) EGFP, the most popular Aequorea GFP mutant variant (GenBank ID U55763); • (13) chromoprotein am2CP(PCT/RU03/00474; SEQ ID NOS: 9, 10); • (14) red fluorescent protein KillerRed (JR18IC+)(SEQ ID NOS: 3, 4), developed on the basis of chromoprotein am2CP by random mutagenesis; and • (15) non-colored mutant of FP506 protein, ZsGreenY66A, containing mutation Y66A which eliminates the chromophore, was used as a negative control.
# Synthetic genes encoding proteins listed above were cloned into the pQE30 vector and transformed into E. coli (XL1-Blue strain). For each protein tested, protein expressing cells were taken from one E. coli colony, diluted into 1 ml of PBS buffer and divided into two portions. One of them was irradiated with white light (light source Fiber-Light from Dolan-Jenner Industries, Inc) for 1 hour. Then both samples aliquots were sowed to the Petri dishes at different dilutions. The number of growing colonies corresponded to the number of bacteria cells surviving after irradiation (i.e. colony forming units, CFU). The CFU number for the irradiated E. coli portion was compared to non-irradiated one, thus allowing an estimate of the relative phototoxic effect for every of the proteins tested.
# Comparing to the wild type chromoprotein anm2CP, KillerRed contains amino acid changes T145N and C161A (corresponding to positions 148 and 165 in Aequorea victoria GFP), which are spatially close to the chromophore and affect fluorescent properties, and a number of folding mutations. […]
# [5] = tested on: E. coli (XL1-Blue strain); assay: Time course of survival of E. coli expressing fluorescent proteins under white light; format: cell-based
# Procedure: To compare the KillerRed phototoxic effect with the effect of DsRed2 fluorescent protein, pQE30 vectors encoding KillerRed, DsRed2 or ZsGreenY66A non-colored protein were prepared as described in Example 1. E. coli (XL1-Blue strain) were transformed with said pQE30 vectors. The cells expressing ZsGreenY66A was used as a negative control. We estimated the percent of cells surviving after bacteria irradiation for 5, 10, 20, 40 and 60 minutes. […] The graph of FIG. 2 indicates the number of colonies, which grew without irradiation and after irradiation for the corresponding period of time.
# E. coli = assay: Action spectrum of KillerRed phototoxic effect (green vs blue light); format: cell-based
# Excerpt: FIG. 3 illustrates excitation (dotted line) and emission (solid line) spectra for KillerRed protein. Hatched and white rectangles show relative phototoxic effect from irradiation with blue (460-490 nm) and green (540-580 nm) light, respectively. Numbers above the rectangles represent the decrease in the number of viable cells after 10-min irradiation (folds).
# Further we roughly checked the action spectrum for KillerRed phototoxic effect (FIG. 3).
# 293T human kidney cells = assay: Light-induced killing of 293T cells expressing KillerRed in cytoplasm; format: cell-based
# Excerpt: For expression in eukaryotic cells, the PCR-amplified Agel-NotI fragments from pQE30 vectors encoding KillerRed and DsRed2 (obtained as described in the Example 1) were PCR amplified and inserted in lieu of the EGFP-coding region in the pEGFP-N1 vector (Clontech).
# 293T human kidney cells were transiently cotransfected with these vectors and the AcGFP1-C1 vector (Clontech) using Lipofectamine reagent (Invitrogen). The cells of interest were characterized with high expression levels of both green fluorescent protein AcGFP1 and KillerRed (or DsRed2 in a control experiment). Cells were irradiated with intense green light for 10 min (100× objective, 535-575 nm excitation filter, 5.8 W/cm2). Mortality of irradiated KillerRed expressing cells reached 40-60%, depending on protein concentration (FIG. 8A).
# At the same time, neighboring cells with a lower KillerRed expression level survived irradiation, presumably due to the lower concentration of the phototoxic agent. […] A Leica confocal inverted microscope TCS SP2 equipped with 125 mW Ar and 1 mW HeNe lasers was used for cell imaging. A LaserCheck (Coherent) power meter was used to measure total power of the excitation light after the microscope objective.
# beta-gal [6] = target: beta-gal (Escherichia coli, UniProt P00722, DEL12-42); conditions: beta-gal mixed with KillerRed (unfused), E. coli extracts
# Procedure: O-nitrophenyl (ONP) absorption after 15 min o-nitrophenyl-D galactoside (ONPG) incubation is proportional to β-gal enzymatic activity.
# Aliquots were either incubated under white light (1 W/cm2, light source Fiber-Light from Dolan-Jenner Industries, Inc) or kept in the dark. The entire volume of the tube was illuminated. Beta-gal activity was assayed in light-illuminated and “dark” aliquots calorimetrically.
# [7] = target: T1, pleckstrin homology (PH) domain of phospholipase C delta-1 (PLC delta-1) (Homo sapiens, UniProt P51178); assay: KillerRed-mediated CALI of PH domain in mammalian cells (membrane to cytoplasm translocation); conditions: KillerRed expressed separately from the PH domain, in membrane or cytosol
# T1 sequence (P51178 1-224): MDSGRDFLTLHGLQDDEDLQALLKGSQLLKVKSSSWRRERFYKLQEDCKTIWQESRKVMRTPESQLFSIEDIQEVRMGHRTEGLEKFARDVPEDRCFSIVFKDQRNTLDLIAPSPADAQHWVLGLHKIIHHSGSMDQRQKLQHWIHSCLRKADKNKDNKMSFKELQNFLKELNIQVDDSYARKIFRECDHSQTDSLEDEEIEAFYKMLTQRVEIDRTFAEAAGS
# Excerpt: KillerRed-mediated CALI was further tested in mammalian cells (FIG. 7). The pleckstrin homology (PH) domain of phospholipase C delta-1 (PLC delta-1) was used as a model protein. The PH domain locates to the inner leaf of plasma membrane due to its high affinity for membrane phospholipids. It has been shown that in case of direct protein inactivation by dye-generated ROS, the PH domain will lose its membrane affinity and become evenly distributed throughout the cell volume.
# A coding sequence for the first 224 amino acids of PLC delta-1 comprising the N-terminal PH-domain was amplified from Fetus Brain cDNA (Clontech) with specific PCR primers. […] Primers used comprised certain restriction sites that were used for following cloning of PCR products into pEGFP-Tub plasmid (Clontech) in frame with EGFP. As a result, a PH domain fusion with EGFP and triple fusions EGFP-PH-KillerRed and EGFP-PH-DsRed-Express operatively linked with CMV promoter were obtained.
# The 293T cell-derived Phoenix Eco cell line was transiently transfected with these constructs. Intracellular localization of PLC delta-1 was evaluated using EGFP signal before and after CALI of the PH domain using confocal and fluorescence microscopy. Fluorescence was monitored using a Leica Confocal Microscope DM IRE2 TCS SP2. […]
# Chain of beta-gal (Escherichia coli, UniProt P00722, DEL12-42) (P00722 whole entry, stated change not applied, the tested form may be a part): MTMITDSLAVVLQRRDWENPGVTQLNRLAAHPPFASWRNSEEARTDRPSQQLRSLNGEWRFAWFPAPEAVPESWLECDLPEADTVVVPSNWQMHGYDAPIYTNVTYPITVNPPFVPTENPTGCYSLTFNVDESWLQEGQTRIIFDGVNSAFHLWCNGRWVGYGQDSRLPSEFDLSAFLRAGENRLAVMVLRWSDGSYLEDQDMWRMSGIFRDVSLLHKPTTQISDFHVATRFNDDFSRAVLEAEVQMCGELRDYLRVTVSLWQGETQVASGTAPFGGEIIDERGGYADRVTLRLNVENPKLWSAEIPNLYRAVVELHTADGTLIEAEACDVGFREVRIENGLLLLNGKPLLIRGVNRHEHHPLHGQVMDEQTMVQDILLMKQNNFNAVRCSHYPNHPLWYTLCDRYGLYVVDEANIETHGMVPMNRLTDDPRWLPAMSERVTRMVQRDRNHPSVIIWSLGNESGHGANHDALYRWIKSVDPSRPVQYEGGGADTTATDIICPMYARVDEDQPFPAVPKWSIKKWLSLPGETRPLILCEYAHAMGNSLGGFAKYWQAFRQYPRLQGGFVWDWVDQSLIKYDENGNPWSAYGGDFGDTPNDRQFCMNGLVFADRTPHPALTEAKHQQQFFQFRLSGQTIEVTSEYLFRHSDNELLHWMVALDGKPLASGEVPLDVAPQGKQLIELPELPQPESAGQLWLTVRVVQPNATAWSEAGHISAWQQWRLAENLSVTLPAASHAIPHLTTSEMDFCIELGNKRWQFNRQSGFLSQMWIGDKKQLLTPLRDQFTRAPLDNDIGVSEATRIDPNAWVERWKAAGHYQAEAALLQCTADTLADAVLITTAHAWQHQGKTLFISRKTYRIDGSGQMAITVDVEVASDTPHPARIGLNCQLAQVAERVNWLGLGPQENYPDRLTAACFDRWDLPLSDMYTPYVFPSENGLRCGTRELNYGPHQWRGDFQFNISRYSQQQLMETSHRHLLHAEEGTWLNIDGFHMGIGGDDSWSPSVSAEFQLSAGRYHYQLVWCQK
# Chain of beta-gal (Escherichia coli, UniProt P00722, DEL12-42) (P00722 with tags, fused parts or gaps DEL12-42): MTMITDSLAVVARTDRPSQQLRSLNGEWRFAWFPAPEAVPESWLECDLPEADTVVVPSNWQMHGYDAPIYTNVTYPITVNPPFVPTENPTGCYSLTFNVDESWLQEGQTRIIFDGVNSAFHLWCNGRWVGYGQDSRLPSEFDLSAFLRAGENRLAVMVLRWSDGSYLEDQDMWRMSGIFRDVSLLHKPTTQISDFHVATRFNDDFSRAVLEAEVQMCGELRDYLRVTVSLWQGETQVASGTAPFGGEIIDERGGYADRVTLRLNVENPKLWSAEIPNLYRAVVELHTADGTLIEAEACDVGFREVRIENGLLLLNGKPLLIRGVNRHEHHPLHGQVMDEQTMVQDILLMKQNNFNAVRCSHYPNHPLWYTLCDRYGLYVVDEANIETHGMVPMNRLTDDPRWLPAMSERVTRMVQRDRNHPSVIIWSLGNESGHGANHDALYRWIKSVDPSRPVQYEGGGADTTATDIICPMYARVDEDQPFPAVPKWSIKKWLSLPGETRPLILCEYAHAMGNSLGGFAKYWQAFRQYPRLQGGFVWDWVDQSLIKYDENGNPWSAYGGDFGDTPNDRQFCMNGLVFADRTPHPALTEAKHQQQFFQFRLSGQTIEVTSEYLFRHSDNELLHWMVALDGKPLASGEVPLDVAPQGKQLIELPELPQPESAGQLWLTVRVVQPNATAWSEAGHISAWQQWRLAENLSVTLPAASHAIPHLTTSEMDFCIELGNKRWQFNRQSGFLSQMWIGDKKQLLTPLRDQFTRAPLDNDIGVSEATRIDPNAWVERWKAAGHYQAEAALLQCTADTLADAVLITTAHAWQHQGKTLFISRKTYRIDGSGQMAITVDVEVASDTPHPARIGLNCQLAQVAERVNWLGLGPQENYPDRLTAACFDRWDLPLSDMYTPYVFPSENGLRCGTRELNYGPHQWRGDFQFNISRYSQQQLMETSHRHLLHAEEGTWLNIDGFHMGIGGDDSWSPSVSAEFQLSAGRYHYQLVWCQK
molecule,measurement,setting,value
"CN(C)c1ccc2c(-c3ccccc3C(=O)[O-])c3ccc(N(C)C)cc3[o+]c2c1 [TMRM, tetramethylrhodamine]",cell death,"B16 melanoma cells [1]; irradiation for 10 sec, within 1.5 h interval",didn't lead to TMRM-loaded cells' death
same,time to cell death,B16 melanoma cells [1]; irradiation for 1 min,30 to 40 min
same,cell death,B16 melanoma cells [1]; irradiation for 5 minutes or longer,immediate cell death
COC(=O)C[C@H](NC(=O)[C@H](C)NC(=O)[C@@H](NC(=O)OCc1ccccc1)C(C)C)C(=O)CF [zVAD-fmk] (Cbz-Val-Ala-Asp(OMe)-CH2F),cell survival after identical irradiation,B16 melanoma cells [2],survived
superoxide dismutase,effect of quencher on CALI of beta-gal,beta-gal [3],impeded CALI slightly
B1,phototoxic effect,[4],not phototoxic
B2,phototoxic effect,[4],phototoxic
B3,phototoxic effect,[4],striking phototoxic effect; also recorded: most strongly expressed
same,bacteria killed,[4]; after 1 hour irradiation with white light,99.95%
same,cells killed,[5]; after 10 minutes of irradiation with white light,96%
same,cells killed,[5]; after 20 minutes of irradiation with white light,~100%
same,cell killing effect,E. coli; blue light irradiation (FITC filter set),weak effect
same,cell killing effect,E. coli; green light irradiation (TRITC filter set),strong cell killing effect
same,Mortality of irradiated cells,"293T human kidney cells; green light 10 min, 535-575 nm, 5.8 W/cm2, depending on protein concentration",40-60%
same,fate of irradiated cell,"293T human kidney cells; highly expressing cell, post irradiation with green light 10 min",disintegrated within an hour and a half
same,effect of irradiation on enzyme activity,beta-gal [6],no effect
same,CALI of the PH domain,[7],no detectable CALI
